Measured values: PMC10683472, “Deep Learning-Driven Library Design for the De Novo Discovery of Bioactive Thiopeptides” (ACS Central Science, 2023)
*1 amine or outer side, *2 acyl side, *3 side chain or, on linkers, in order; H or OH if unused. Where a SMILES comes first, the peptide text is derived from it. Where no end group is shown, it is not given here. [ ]: non-standard residue; d: D form. hGln = L-homoglutamine, NC(=O)CCC[C@H](N[*:1])C(=O)[*:2]; pyridine‑bisazole = not defined here; Nle = CCCC[C@H](N)C(=O)O; Dhb = C/C=C(\N)C(=O)O; Dha = C=C(N)C(=O)O

T1: IRAK4 (Homo sapiens, UniProt Q9NWZ3)
T1 sequence (Q9NWZ3 1-460): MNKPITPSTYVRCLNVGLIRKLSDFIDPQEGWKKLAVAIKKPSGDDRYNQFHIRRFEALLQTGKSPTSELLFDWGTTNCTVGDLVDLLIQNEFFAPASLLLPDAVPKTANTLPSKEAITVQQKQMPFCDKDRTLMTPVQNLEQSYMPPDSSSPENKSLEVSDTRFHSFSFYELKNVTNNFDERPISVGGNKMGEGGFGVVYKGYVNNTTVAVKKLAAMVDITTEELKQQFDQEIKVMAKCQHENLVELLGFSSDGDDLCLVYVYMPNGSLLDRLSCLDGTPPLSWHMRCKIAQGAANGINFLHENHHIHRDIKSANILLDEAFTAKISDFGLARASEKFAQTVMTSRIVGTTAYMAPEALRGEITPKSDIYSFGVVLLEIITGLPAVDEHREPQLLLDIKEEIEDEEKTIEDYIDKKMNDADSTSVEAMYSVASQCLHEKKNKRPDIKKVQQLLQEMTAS

T2: Biotinylated IRAK4 (kinase domain, amino acids 1-460; NP_057207.2) (Homo sapiens, UniProt Q9NWZ3)
T2 construct: acids 1-460; NP_057207.2) was purchased from Carna Biosciences; purchased Carna Biosciences (Kobe, Japan)
T2 sequence (Q9NWZ3 1-460): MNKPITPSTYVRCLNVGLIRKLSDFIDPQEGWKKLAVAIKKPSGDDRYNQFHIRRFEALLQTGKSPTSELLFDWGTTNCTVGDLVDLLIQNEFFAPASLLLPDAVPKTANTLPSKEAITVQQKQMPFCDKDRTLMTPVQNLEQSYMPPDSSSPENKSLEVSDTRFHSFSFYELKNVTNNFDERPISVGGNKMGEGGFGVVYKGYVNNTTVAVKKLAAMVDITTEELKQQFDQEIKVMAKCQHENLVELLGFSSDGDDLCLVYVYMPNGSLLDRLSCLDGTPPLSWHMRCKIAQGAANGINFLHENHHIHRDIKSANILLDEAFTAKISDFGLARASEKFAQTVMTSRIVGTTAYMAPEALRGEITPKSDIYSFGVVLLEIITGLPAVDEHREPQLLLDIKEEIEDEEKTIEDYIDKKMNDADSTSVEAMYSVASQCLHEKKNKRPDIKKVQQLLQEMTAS

T3: interleukin-1 receptor-associated kinase 4 (UniProt Q9NWZ3 1-460)
T3 construct: interleukin-1 receptor-associated kinase 4 (IRAK4); also called IRAK4; IRAK4 kinase
T3 sequence (looked up): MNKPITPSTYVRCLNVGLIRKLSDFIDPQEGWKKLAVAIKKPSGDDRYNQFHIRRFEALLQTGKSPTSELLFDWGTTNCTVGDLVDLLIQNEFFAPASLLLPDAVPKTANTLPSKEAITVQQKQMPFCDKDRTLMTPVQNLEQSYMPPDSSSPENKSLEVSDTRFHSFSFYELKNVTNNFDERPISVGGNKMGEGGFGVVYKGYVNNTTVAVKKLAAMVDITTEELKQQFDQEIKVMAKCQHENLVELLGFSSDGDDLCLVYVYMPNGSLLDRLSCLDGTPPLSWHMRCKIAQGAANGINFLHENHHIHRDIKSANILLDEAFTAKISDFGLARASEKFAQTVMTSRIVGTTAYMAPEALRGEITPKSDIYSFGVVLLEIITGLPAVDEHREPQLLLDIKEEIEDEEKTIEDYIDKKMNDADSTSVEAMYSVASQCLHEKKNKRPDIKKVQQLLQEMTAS

T4: toll-like receptor 10, extracellular domain (UniProt Q9BXR5 20-576)
T4 construct: toll-like receptor 10 (TLR10), extracellular domain; also called TLR10; TLR10 cell surface receptor
T4 sequence (looked up): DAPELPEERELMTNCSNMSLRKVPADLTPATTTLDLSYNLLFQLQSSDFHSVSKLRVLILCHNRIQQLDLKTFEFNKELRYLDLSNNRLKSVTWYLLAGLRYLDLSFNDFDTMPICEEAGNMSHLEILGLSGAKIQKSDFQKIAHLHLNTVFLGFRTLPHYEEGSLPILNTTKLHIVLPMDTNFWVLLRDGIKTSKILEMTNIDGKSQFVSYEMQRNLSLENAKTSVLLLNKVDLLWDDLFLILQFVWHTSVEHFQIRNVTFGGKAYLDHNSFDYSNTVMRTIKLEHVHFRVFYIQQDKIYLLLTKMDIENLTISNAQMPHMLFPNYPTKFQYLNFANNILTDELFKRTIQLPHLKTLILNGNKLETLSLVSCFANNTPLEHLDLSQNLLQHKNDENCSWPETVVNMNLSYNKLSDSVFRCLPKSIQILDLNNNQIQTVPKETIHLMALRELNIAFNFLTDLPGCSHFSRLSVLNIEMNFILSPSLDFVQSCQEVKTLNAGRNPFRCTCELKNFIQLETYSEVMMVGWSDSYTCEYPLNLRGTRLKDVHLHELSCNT

B1: thiopeptide IR11 (synthetic) (peptide)
chain: SWAMSLYWARRRPHSCSC
modifications: bridge (positions not given here) via pyridine‑bisazole; reading uncertain; also: macrocycle closed through pyridine-bisazole moiety, oxazole to thiazole change
B2: thiopeptide TL4 (synthetic) (peptide)
chain: SWTIRFTNQNKIAFSCSC
modifications: bridge (positions not given here) via pyridine‑bisazole; reading uncertain; also: macrocycle closed through pyridine-bisazole moiety, oxazole to thiazole change
B3: thiopeptide IR8 (synthetic) (peptide)
chain: SWTL[hGln]WKRRTWKSCSC
modifications: bridge (positions not given here) via pyridine‑bisazole; reading uncertain; also: macrocycle closed through a pyridine-bisazole moiety, oxazole to thiazole change
B4: thiopeptide TL6 (synthetic) (peptide)
chain: SWT[Nle]LFRLQSKLAISCSC
modifications: bridge (positions not given here) via pyridine‑bisazole; reading uncertain; also: macrocycle closed through a pyridine-bisazole moiety, oxazole to thiazole change
B5: thiopeptide TL17 (synthetic) (peptide)
chain: SWALLIKQIN[Nle]LY[hGln]SCSC
modifications: bridge (positions not given here) via pyridine‑bisazole; reading uncertain; also: macrocycle closed through a pyridine-bisazole moiety, oxazole to thiazole change
B6: thiopeptide TL3 (synthetic) (peptide)
chain: SW[hGln]ISFWLQRKVAFSCSC
modifications: bridge (positions not given here) via pyridine‑bisazole; reading uncertain; also: macrocycle closed through a pyridine-bisazole moiety, oxazole to thiazole change
B7: thiopeptide IR1 (synthetic) (peptide)
chain: SWS[Nle]KRQFITWHW[Dhb]SCSC
modifications: bridge (positions not given here) via pyridine‑bisazole; reading uncertain; also: macrocycle closed through pyridine-bisazole moiety, oxazole to thiazole change
B8: thiopeptide TL19 (synthetic) (peptide)
chain: SWIGRV[Nle]IK[Dha]SSCSC
modifications: bridge (positions not given here) via pyridine‑bisazole; not fully specified (residue 11); reading uncertain; also: Ser11 is an oxazole, macrocycle closed through a pyridine-bisazole moiety

Columns and labels:
[1] = target: T1, IRAK4; assay: Single-round mRNA display binding assay (qPCR), IRAK4; design: acids 1-460; NP_057207.2) was purchased from Carna Biosciences; purchased Carna Biosciences (Kobe, Japan); conditions: ratio of cDNA recoveries (qPCR), IRAK4 pulldown over beads only, single-round selection
[2] = target: T1, IRAK4; assay: mRNA display affinity selection against IRAK4, NGS abundance; assay type: binding; design: acids 1-460; NP_057207.2) was purchased from Carna Biosciences; purchased Carna Biosciences (Kobe, Japan); conditions: IRAK4 selection, NGS abundance rank
[3] = target: T2, Biotinylated IRAK4 (kinase domain, amino acids 1-460; NP_057207.2); assay: Surface plasmon resonance binding to IRAK4
From the text: Reagents were purchased from Nacalai Tesque, Wako Pure Chemical Industries, Sigma-Aldrich Japan, or TCI Chemicals and were used as received. Biotinylated IRAK4 (kinase domain, amino acids 1-460; NP_057207.2) was purchased from Carna Biosciences (Kobe, Japan). Recombinant human TLR10 Fc Chimera protein (extracellular domain, amino acid 20-576; Q9BXR5) was purchased from R&D system (#6619-TR-050). Anti-HA magnetic beads were from Pierce Thermo Fisher Scientific (#88836). Magnetic beads with immobilized streptavidin were from Invitrogen (Dynabeads Streptavidin C1, # 65001). Magnetic beads with immobilized streptavidin were from Invitrogen (Dynabeads Streptavidin M280, #11206D).
Protein purification and synthesis of Streptomyces lactacystinaeus tRNAGlu were done as previously described.1–3 Protein concentration measurements were carried out on a Nanodrop 2000c spectrophotometer (Thermo Scientific) equipped with a 5 mm pathlength quartz cuvette using extinction coefficient values calculated with ExPASy ProtParam tool (https://web.expasy.org/protparam).
Biochemical measurements (sections 2.10 – 2.14) were performed in triplicate or more. Most experiments were reproduced to an analogous outcome at least once. In the cases where the determination of biophysical parameters involved cell assay (CP50 and IC50), reported are standard errors of the fit; otherwise, error bars are standard deviations.
RNA extracted from the gel with 300 mM NaCl were collected by ethanol precipitation followed by centrifugation (15300 g for 15 min) and dissolved in water for storage. tRNAini was aminoacylated with eFx using biotin-Phe-CME as a substrate. tRNAini (25 µM) and eFx (25 µM) were incubated with biotin-Phe-CME (5 mM) in HEPES-KOH buffer (50 mM; pH 7.5) containing 600 mM MgCl2 on ice for 2 h. The reactions were stopped with the addition of 300 mM NaOAc (pH 5.2), and precipitated with ethanol. Precipitated RNA was recovered by centrifugation (15300 g for 15 min). The pellet was washed with 70% ethanol in water (v/v) containing 100 mM NaOAc (pH 5.2) and used in translation.
2.10. Surface plasmon resonance
Binding affinities between the thiopeptides and IRAK4/TLR10 were measured with a Biacore 8K instrument (GE Healthcare) at 25 °C. The assay buffer for IRAK4 binding analysis contained 50 mM Tris (pH 7.5), 150 mM NaCl, 10 mM MgCl2, 0.05% (v/v) tween-20 and 0.1% (v/v) DMSO. The […]
Biotinylated IRAK4 was immobilized on a Biacore CAP chip (GE Healthcare) to a surface density […]
step was allowed to proceed for 480 s. Kinetic parameters and affinities of the interaction were […]
provided by the manufacturer. The interaction sensorgrams were measured as single -cycle […]
Kinetic parameters and affinities of the
Evaluation Software v.3.0 (GE Healthcare).

[4] = Serum stability assay; assay type: in vitro ADME; conditions: pH 7.6; human serum, 37 °C, LC/MS; read-out: serum stability τ1/2 (converted)
Description: Next, we tested the metabolic stability of the discovered thiopeptides. The compounds were incubated in human serum at 37 °C in the presence of an internal control, and the amounts of the remaining analytes were quantified by LC/MS (Figures S27 and 28). […] At the other extreme, IR11 rapidly degraded in human serum with τ1/2 = 0.5 h. […]
Kinetic parameters and affinities of the […]
2.12. Thiopeptide metabolic stability experiments
The mixtures were stirred
well and transferred to a 37 °C thermostat. […]

[5] = system: THP1-XBlue cells; assay: Cell viability with Cell Counting Kit-8; conditions: at the tested concentrations
Description: 2.13. NF-kB signaling pathway inhibition assay
THP-1 Cellular Assay. THP1-XBlue cells containing an NF-kB-inducible secreted embryonic alkaline phosphatase (SEAP) reporter gene (InvivoGen) were seeded to 96-well assay plates (10^5 cells/well) with RPMI 1640 culture medium containing 10% fetal calf serum. The cells were pre-treated with various concentration of analyte thiopeptide inhibitor in 0.1% DMSO and incubated at 37 °C for 6 h. LPS-EK (30 ng/mL, InvivoGen) was subsequently added to activate the NF-kB signalling for 20 h. To quantitate SEAP activity, supernatants were harvested (300 g, 5min) and mixed with Quanti-Blue (InvivoGen) detection reagent following the manufacturer’s instructions.
Cells were assayed with cell counting kit-8 in parallel to rule out potential cytotoxicity. The plates

[6] = target: T3, interleukin-1 receptor-associated …; assay: SPR; surface plasmon resonance of synthetic thiopeptides on their target protein; conditions in S.I. 2.10 (not shown); conditions: both partners purified
[7] = target: T4, toll-like receptor 10, extracellular …; assay: as above; conditions: both partners purified

Molecule	Kd [6] [nM]	Kd [7] [nM]	other results
C=C1NC(=O)[C@H](CCCCN)NC(=O)[C@H](Cc2c[nH]c3ccccc23)NC(=O)[C@H]([C@@H](C)O)NC(=O)[C@H](CCCNC(=N)N)NC(=O)[C@H](CCCNC(=N)N)NC(=O)[C@H](CCCCN)NC(=O)[C@H](Cc2c[nH]c3ccccc23)NC(=O)[C@H](CCCC(N)=O)NC(=O)[C@H](CC(C)C)NC(=O)[C@H]([C@@H](C)O)NC(=O)[C@H](Cc2c[nH]c3ccccc23)NC(=O)c2ccc(-c3nc(C(=O)OC)cs3)nc2-c2csc1n2 [IR8] (HELM PEPTIDE1{W.T.L.[O=C([C@H](CCCC(=O)[*:3])N[*:1])[*:2]].W.K.R.R.T.W.K}|PEPTIDE2{[am]}|CHEM1{[C=C(N[*:2])c1nc(-c2nc(-c3nc(C(=O)OC)cs3)ccc2C(=O)[*:1])cs1]}$PEPTIDE1,PEPTIDE2,4:R3-1:R1|PEPTIDE1,CHEM1,1:R1-1:R1|PEPTIDE1,CHEM1,11:R2-1:R2$$$V2.0; bridges inferred)			display P/N ratio [1]: 152; rank in pulldown(+) [2]: 9; rank in pulldown(–) [2]: 9; koff [3]: 0.027 s⁻¹; kon [3]: 1.24e+06 M⁻¹ s⁻¹; half-life at 10 µM [4]: 42 ± 4.8 min
CC[C@@H]1[C@H](F)C(=O)N[C@@H]1COc1nccc2cc(C(N)=O)c(OC)cc12 [PF-06650833, 1-{[(2S,3S,4S)-3-Ethyl-4-fluoro-5-oxopyrrolidin-2-yl]methoxy}-7-methoxyisoquinoline-6-carboxamide, reference compound]			cytotoxicity (Cell Counting Kit-8) [5]: not cytotoxic
B1	2700		
B2		680	
B3	22		
B4		630	
B5		360	
B6		890	
B7	230		
B8		570	
